The values that follow come from patent US20230272116A1 (Hoffmann-La Roche, published 2023).

Usually EC50 stands for the concentration at which the effect is half-maximal. As a reminder, the EC50 (read off the curve) is the concentration giving half of the maximal effect.

The labels stand for the following.
B3: P1AF0713 (CEA CH1A1A split DOTA-VH-AST) (antibody, human IgG1, kappa, L234A L235A)
heavy 1: QVQLVQSGAEVKKPGASVKVSCKASGYTFTEFGMNWVRQAPGQGLEWMGWINTKTGEATYVEEFKGRVTFTTDTSTSTAYMELRSLRSDDTAVYYCARWDFAYYVEAMDYWGQGTTVTVSSASTKGPSVFPLAPSSKSTSGGTAALGCLVKDYFPEPVTVSWNSGALTSGVHTFPAVLQSSGLYSLSSVVTVPSSSLGTQTYICNVNHKPSNTKVDKKVEPKSCDKTHTCPPCPAPEAAGGPSVFLFPPKPKDTLMISRTPEVTCVVVDVSHEDPEVKFNWYVDGVEVHNAKTKPREEQYNSTYRVVSVLTVLHQDWLNGKEYKCKVSNKALGAPIEKTISKAKGQPREPQVCTLPPSRDELTKNQVSLSCAVKGFYPSDIAVEWESNGQPENNYKTTPPVLDSDGSFFLVSKLTVDKSRWQQGNVFSCSVMHEALHNHYTQKSLSLSPG
heavy 2: not shown
light: DIQMTQSPSSLSASVGDRVTITCKASAAVGTYVAWYQQKPGKAPKLLIYSASYRKRGVPSRFSGSGSGTDFTLTISSLQPEDFATYYCHQYYTYPLFTFGQGTKLEIKRTVAAPSVFIFPPSDEQLKSGTASVVCLLNNFYPREAKVQWKVDNALQSGNSQESVTEQDSKDSTYSLSSTLTLSKADYEKHKVYACEVTHQGLSSPVTKSFNRGEC
notes: CH1A1A anti-CEA IgG1 (knob-into-hole); also called CEA specific SPLIT antibody; P6_B

In experiment [1] the target is T1, Carcinoembryonic antigen (CEA), Carcinoembryonic antigen-related cell adhesion molecule 5 (CEACAM5), on cells (human, UniProt P06731 35-685).
T1 construct: whole, on cells; also called CEA on MKN-45 cells; CEA in BxPC3 tumours
T1 sequence (looked up): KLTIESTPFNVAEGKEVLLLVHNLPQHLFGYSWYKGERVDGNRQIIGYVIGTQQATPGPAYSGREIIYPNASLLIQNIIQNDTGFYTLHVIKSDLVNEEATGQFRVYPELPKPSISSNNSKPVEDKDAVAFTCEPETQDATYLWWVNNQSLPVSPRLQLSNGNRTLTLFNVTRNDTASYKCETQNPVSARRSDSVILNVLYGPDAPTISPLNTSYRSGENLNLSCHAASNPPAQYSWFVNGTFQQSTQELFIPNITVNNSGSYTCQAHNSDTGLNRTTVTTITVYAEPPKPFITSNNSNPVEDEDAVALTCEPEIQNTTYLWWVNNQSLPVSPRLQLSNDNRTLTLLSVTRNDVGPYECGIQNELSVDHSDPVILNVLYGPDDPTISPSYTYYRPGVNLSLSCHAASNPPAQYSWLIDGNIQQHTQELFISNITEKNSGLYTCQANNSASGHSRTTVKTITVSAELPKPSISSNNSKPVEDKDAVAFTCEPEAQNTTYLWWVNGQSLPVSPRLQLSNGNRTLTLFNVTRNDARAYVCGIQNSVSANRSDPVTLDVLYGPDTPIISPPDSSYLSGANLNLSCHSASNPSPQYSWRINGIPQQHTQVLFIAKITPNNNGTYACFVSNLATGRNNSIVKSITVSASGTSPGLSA
The experiment can be described thus: flow cytometry on MKN-45 cells, detection with anti-huIgG(H+L)-Alexa488. As to the method:
MKN-45 cells were detached from the culture bottle using Trypsin and were counted using a Casy cell counter. After pelleting at 4° C., 300 g the cells were resuspended in FACS Buffer (2.5% FCS in PBS), adjusted to 2.0E+06 cells/mL dispensed to 96-well PP V-bottom-Platte (25 μL/well=5.0E+04 Zellen/well).
Both antibodies were added to the cells either separated followed by buffer or combined and incubated at 4° C. for 1 h. The cells were then washed twice in FACS buffer. After washing, the cells were resuspended in 50 μL FACS-buffer containing secondary antibody (<huIgG(H+L)>-Alexa488, c=10 μg/mL) and incubated 1 h at 4° C. The cells were then washed twice in FACS buffer and resuspended in 70 μl/well FACS buffer for measurement using a FACS Canto (BD, Pharmingen).

Experiment [2] addresses B3. The experiment can be described thus: cell-based or functional assay.
Experiment [3] has as its target T1, Carcinoembryonic antigen (CEA), …. Description: FACS on MKN-45 cells; hemibody mixed 1:1 with human ISO control; detection with anti-human IgG(H+L) secondary antibody.
Description: To assess the functionality of the split antibodies or hemibodies, MKN-45 cells were detached from the culture vessel using accutase at 37° C. for 10 minutes. Subequently, the cells were washed twice in PBS, and seeded into 96 well v-bottom plates to a final density of 4×10⁶ cells/well.
Subsequently, the cells were incubated for 1 h on ice and washed twice in PBS. The cell pellet was resuspended and 40 μl/well of detection reagent was added, either <human IgG(H+L)>FITC, (10 μg/ml) or Pb_Dotam_FITC 1:100=>(10 μg/ml) in PBS/5% FCS. After 60 min incubation on ice, the cells were washed twice in PBS and resuspended in 200 μl PBS/5% FCS for measurement of FITC fluorescence using a FACS canto.

B1: P1AF0712 (CEA CH1A1A split DOTA-VL) (antibody, human IgG1, kappa, L234A L235A)
heavy 1: not shown
heavy 2: QVQLVQSGAEVKKPGASVKVSCKASGYTFTEFGMNWVRQAPGQGLEWMGWINTKTGEATYVEEFKGRVTFTTDTSTSTAYMELRSLRSDDTAVYYCARWDFAYYVEAMDYWGQGTTVTVSSASTKGPSVFPLAPSSKSTSGGTAALGCLVKDYFPEPVTVSWNSGALTSGVHTFPAVLQSSGLYSLSSVVTVPSSSLGTQTYICNVNHKPSNTKVDKKVEPKSCDKTHTCPPCPAPEAAGGPSVFLFPPKPKDTLMISRTPEVTCVVVDVSHEDPEVKFNWYVDGVEVHNAKTKPREEQYNSTYRVVSVLTVLHQDWLNGKEYKCKVSNKALGAPIEKTISKAKGQPREPQVCTLPPSRDELTKNQVSLSCAVKGFYPSDIAVEWESNGQPENNYKTTPPVLDSDGSFFLVSKLTVDKSRWQQGNVFSCSVMHEALHNHYTQKSLSLSPGGGGGSGGGGSGGGGSGGGGSQAVVIQESALTTPPGETVTLTCGSSTGAVTASNYANWVQEKPDHLFTGLIGGHNNRPPGVPARFSGSLIGDKAALTIAGTQTEDEAIYFCALWYSDHWVIGGGTKLTVL
light: DIQMTQSPSSLSASVGDRVTITCKASAAVGTYVAWYQQKPGKAPKLLIYSASYRKRGVPSRFSGSGSGTDFTLTISSLQPEDFATYYCHQYYTYPLFTFGQGTKLEIKRTVAAPSVFIFPPSDEQLKSGTASVVCLLNNFYPREAKVQWKVDNALQSGNSQESVTEQDSKDSTYSLSSTLTLSKADYEKHKVYACEVTHQGLSSPVTKSFNRGEC
notes: CH1A1A anti-CEA IgG1 (knob-into-hole); also called CEA specific SPLIT antibody; P6_A
With B1, in experiment [1], the 50% effective concentration (EC50) was 2.7 µg/mL. For the same molecule, the “EC50 µg/ml absolute, DOTA-FITC (Pb-DOTA-FITC detection on MKN-45 cells, FACS)” value in experiment [2] was found to be 2.4 µg/mL.

B2: CEA-split-DOTAM-VH P1AD8749 (antibody, human IgG1, kappa, L234A L235A)
heavy 1: QVQLVQSGAEVKKPGASVKVSCKASGYTFTEFGMNWVRQAPGQGLEWMGWINTKTGEATYVEEFKGRVTFTTDTSTSTAYMELRSLRSDDTAVYYCARWDFAYYVEAMDYWGQGTTVTVSSASTKGPSVFPLAPSSKSTSGGTAALGCLVKDYFPEPVTVSWNSGALTSGVHTFPAVLQSSGLYSLSSVVTVPSSSLGTQTYICNVNHKPSNTKVDKKVEPKSCDKTHTCPPCPAPEAAGGPSVFLFPPKPKDTLMISRTPEVTCVVVDVSHEDPEVKFNWYVDGVEVHNAKTKPREEQYNSTYRVVSVLTVLHQDWLNGKEYKCKVSNKALGAPIEKTISKAKGQPREPQVCTLPPSRDELTKNQVSLSCAVKGFYPSDIAVEWESNGQPENNYKTTPPVLDSDGSFFLVSKLTVDKSRWQQGNVFSCSVMHEALHNHYTQKSLSLSPG
heavy 2: not shown
light: DIQMTQSPSSLSASVGDRVTITCKASAAVGTYVAWYQQKPGKAPKLLIYSASYRKRGVPSRFSGSGSGTDFTLTISSLQPEDFATYYCHQYYTYPLFTFGQGTKLEIKRTVAAPSVFIFPPSDEQLKSGTASVVCLLNNFYPREAKVQWKVDNALQSGNSQESVTEQDSKDSTYSLSSTLTLSKADYEKHKVYACEVTHQGLSSPVTKSFNRGEC
notes: CH1A1A anti-CEA IgG1 (knob-into-hole, PG LALA); Both heavy chains carry VH-CH1, so the light chain pairs with each; also called PRIT Split Antibody with DOTAM-VH; hemibody
With B2, in experiment [3], the “EC50 (read off the curve)” value was roughly 1 µg/mL.
Take B3: in experiment [1], the concentration for a half-maximal effect (EC50) is 2.3 µg/mL.
